# Laboratory results reported in patent publication US20130011378A1, “Stable formulations of a hyaluronan-degrading enzyme” (priority 2011, published 2013).
# Assay: RP-HPLC: insulin apparent solubility / percent recovery
# Details: 7 days at 2-8° C.
# Method: Apparent solubility was measured as the percent insulin recovery as compared to the initial formulations/conditions.
# Samples were prepared by withdrawing 100 μL from each vial at every time point and centrifuging prior to loading. Samples were stored in an autosampler at 4° C. prior to use, and were considered stable for 3 days after preparation. All samples were tested in duplicate.
# For insulin, 20 μL was injected for each HPLC run.
# To determine the apparent solubility, the peak area of insulin/insulin analog main peak and desamido peak were integrated and combined together to calculate the percentage relative to the standards. […] The data were processed using Design-Expert® 7.0 (StatEase) and the “historical data” feature. Insulin percent purity was expressed as the percent of main insulin versus all insulin species.
substance,measurement,setting,value
Insulin Aspart,"Solubility of Insulin Aspart, % remaining of the original concentration","0.2% methylparaben + […] m-cresol, pH 6.6, NaCl 50 mM",57.7%
same,"Solubility of Insulin Aspart, % remaining of the original concentration","0.2% methylparaben + […] m-cresol, pH 6.6, NaCl 80 mM",32.1%
same,"Solubility of Insulin Aspart, % remaining of the original concentration","0.2% methylparaben + […] m-cresol, pH 6.6, NaCl 110 mM",21.1%
same,"Solubility of Insulin Aspart, % remaining of the original concentration","0.2% methylparaben + […] m-cresol, pH 6.6, NaCl 140 mM",14.7%
same,"Solubility of Insulin Aspart, % remaining of the original concentration","0.2% methylparaben + […] m-cresol, pH 6.8, NaCl 50 mM",97.2%
same,"Solubility of Insulin Aspart, % remaining of the original concentration","0.2% methylparaben + […] m-cresol, pH 6.8, NaCl 80 mM",84.1%
same,"Solubility of Insulin Aspart, % remaining of the original concentration","0.2% methylparaben + […] m-cresol, pH 6.8, NaCl 110 mM",54.2%
same,"Solubility of Insulin Aspart, % remaining of the original concentration","0.2% methylparaben + […] m-cresol, pH 6.8, NaCl 140 mM",32.2%
same,"Solubility of Insulin Aspart, % remaining of the original concentration","0.2% methylparaben + […] m-cresol, pH 7.0, NaCl 50 mM",98.7%
same,"Solubility of Insulin Aspart, % remaining of the original concentration","0.2% methylparaben + […] m-cresol, pH 7.0, NaCl 80 mM",100.2%
same,"Solubility of Insulin Aspart, % remaining of the original concentration","0.2% methylparaben + […] m-cresol, pH 7.0, NaCl 110 mM",96.3%
same,"Solubility of Insulin Aspart, % remaining of the original concentration","0.2% methylparaben + […] m-cresol, pH 7.0, NaCl 140 mM",67.9%
same,"Solubility of Insulin Aspart, % remaining of the original concentration","0.2% methylparaben + […] m-cresol, pH 7.2, NaCl 50 mM",99.0%
same,"Solubility of Insulin Aspart, % remaining of the original concentration","0.2% methylparaben + […] m-cresol, pH 7.2, NaCl 80 mM",100.2%
same,"Solubility of Insulin Aspart, % remaining of the original concentration","0.2% methylparaben + […] m-cresol, pH 7.2, NaCl 110 mM",99.5%
same,"Solubility of Insulin Aspart, % remaining of the original concentration","0.2% methylparaben + […] m-cresol, pH 7.2, NaCl 140 mM",101.6%
same,"Solubility of Insulin Aspart, % remaining of the original concentration","0.2% methylparaben + […] m-cresol, pH 7.4, NaCl 50 mM",99.1%
same,"Solubility of Insulin Aspart, % remaining of the original concentration","0.2% methylparaben + […] m-cresol, pH 7.4, NaCl 80 mM",100.5%
same,"Solubility of Insulin Aspart, % remaining of the original concentration","0.2% methylparaben + […] m-cresol, pH 7.4, NaCl 110 mM",99.6%
same,"Solubility of Insulin Aspart, % remaining of the original concentration","0.2% methylparaben + […] m-cresol, pH 7.4, NaCl 140 mM",99.6%
same,"Solubility of Insulin Aspart, % remaining of the original concentration","0.2% methylparaben + […] m-cresol, pH 7.6, NaCl 50 mM",99.3%
same,"Solubility of Insulin Aspart, % remaining of the original concentration","0.2% methylparaben + […] m-cresol, pH 7.6, NaCl 80 mM",100.6%
same,"Solubility of Insulin Aspart, % remaining of the original concentration","0.2% methylparaben + […] m-cresol, pH 7.6, NaCl 110 mM",99.8%
same,"Solubility of Insulin Aspart, % remaining of the original concentration","0.2% methylparaben + […] m-cresol, pH 7.6, NaCl 140 mM",99.8%
same,"Solubility of Insulin Aspart, % remaining of the original concentration","0.2% phenol + […] m-cresol, pH 6.6, NaCl 50 mM",91.8%
same,"Solubility of Insulin Aspart, % remaining of the original concentration","0.2% phenol + […] m-cresol, pH 6.6, NaCl 80 mM",59.2%
same,"Solubility of Insulin Aspart, % remaining of the original concentration","0.2% phenol + […] m-cresol, pH 6.6, NaCl 110 mM",58.0%
same,"Solubility of Insulin Aspart, % remaining of the original concentration","0.2% phenol + […] m-cresol, pH 6.6, NaCl 140 mM",39.3%
same,"Solubility of Insulin Aspart, % remaining of the original concentration","0.2% phenol + […] m-cresol, pH 6.8, NaCl 50 mM",98.8%
same,"Solubility of Insulin Aspart, % remaining of the original concentration","0.2% phenol + […] m-cresol, pH 6.8, NaCl 80 mM",91.8%
same,"Solubility of Insulin Aspart, % remaining of the original concentration","0.2% phenol + […] m-cresol, pH 6.8, NaCl 110 mM",72.8%
same,"Solubility of Insulin Aspart, % remaining of the original concentration","0.2% phenol + […] m-cresol, pH 6.8, NaCl 140 mM",50.9%
same,"Solubility of Insulin Aspart, % remaining of the original concentration","0.2% phenol + […] m-cresol, pH 7.0, NaCl 50 mM",99.1%
same,"Solubility of Insulin Aspart, % remaining of the original concentration","0.2% phenol + […] m-cresol, pH 7.0, NaCl 80 mM",100.6%
same,"Solubility of Insulin Aspart, % remaining of the original concentration","0.2% phenol + […] m-cresol, pH 7.0, NaCl 110 mM",99.9%
same,"Solubility of Insulin Aspart, % remaining of the original concentration","0.2% phenol + […] m-cresol, pH 7.0, NaCl 140 mM",88.9%
same,"Solubility of Insulin Aspart, % remaining of the original concentration","0.2% phenol + […] m-cresol, pH 7.2, NaCl 50 mM",99.1%
same,"Solubility of Insulin Aspart, % remaining of the original concentration","0.2% phenol + […] m-cresol, pH 7.2, NaCl 80 mM",100.5%
same,"Solubility of Insulin Aspart, % remaining of the original concentration","0.2% phenol + […] m-cresol, pH 7.2, NaCl 110 mM",100.0%
same,"Solubility of Insulin Aspart, % remaining of the original concentration","0.2% phenol + […] m-cresol, pH 7.2, NaCl 140 mM",99.7%
same,"Solubility of Insulin Aspart, % remaining of the original concentration","0.2% phenol + […] m-cresol, pH 7.4, NaCl 50 mM",99.2%
same,"Solubility of Insulin Aspart, % remaining of the original concentration","0.2% phenol + […] m-cresol, pH 7.4, NaCl 80 mM",100.6%
same,"Solubility of Insulin Aspart, % remaining of the original concentration","0.2% phenol + […] m-cresol, pH 7.4, NaCl 110 mM",100.0%
same,"Solubility of Insulin Aspart, % remaining of the original concentration","0.2% phenol + […] m-cresol, pH 7.4, NaCl 140 mM",99.7%
same,"Solubility of Insulin Aspart, % remaining of the original concentration","0.2% phenol + […] m-cresol, pH 7.6, NaCl 50 mM",99.2%
same,"Solubility of Insulin Aspart, % remaining of the original concentration","0.2% phenol + […] m-cresol, pH 7.6, NaCl 80 mM",100.8%
same,"Solubility of Insulin Aspart, % remaining of the original concentration","0.2% phenol + […] m-cresol, pH 7.6, NaCl 110 mM",100.2%
same,"Solubility of Insulin Aspart, % remaining of the original concentration","0.2% phenol + […] m-cresol, pH 7.6, NaCl 140 mM",99.8%
same,"Solubility of Insulin Aspart, % remaining of the original concentration","[…] phenol + […] m-cresol, pH 6.6, NaCl 50 mM",97.9%
same,"Solubility of Insulin Aspart, % remaining of the original concentration","[…] phenol + […] m-cresol, pH 6.6, NaCl 80 mM",86.3%
same,"Solubility of Insulin Aspart, % remaining of the original concentration","[…] phenol + […] m-cresol, pH 6.6, NaCl 110 mM",54.4%
same,"Solubility of Insulin Aspart, % remaining of the original concentration","[…] phenol + […] m-cresol, pH 6.6, NaCl 140 mM",38.3%
same,"Solubility of Insulin Aspart, % remaining of the original concentration","[…] phenol + […] m-cresol, pH 6.8, NaCl 50 mM",99.8%
same,"Solubility of Insulin Aspart, % remaining of the original concentration","[…] phenol + […] m-cresol, pH 6.8, NaCl 80 mM",97.9%
same,"Solubility of Insulin Aspart, % remaining of the original concentration","[…] phenol + […] m-cresol, pH 6.8, NaCl 110 mM",97.5%
same,"Solubility of Insulin Aspart, % remaining of the original concentration","[…] phenol + […] m-cresol, pH 6.8, NaCl 140 mM",60.5%
same,"Solubility of Insulin Aspart, % remaining of the original concentration","[…] phenol + […] m-cresol, pH 7.0, NaCl 50 mM",99.7%
same,"Solubility of Insulin Aspart, % remaining of the original concentration","[…] phenol + […] m-cresol, pH 7.0, NaCl 80 mM",99.3%
same,"Solubility of Insulin Aspart, % remaining of the original concentration","[…] phenol + […] m-cresol, pH 7.0, NaCl 110 mM",99.3%
same,"Solubility of Insulin Aspart, % remaining of the original concentration","[…] phenol + […] m-cresol, pH 7.0, NaCl 140 mM",100.2%
same,"Solubility of Insulin Aspart, % remaining of the original concentration","[…] phenol + […] m-cresol, pH 7.2, NaCl 50 mM",99.1%
same,"Solubility of Insulin Aspart, % remaining of the original concentration","[…] phenol + […] m-cresol, pH 7.2, NaCl 80 mM",99.2%
same,"Solubility of Insulin Aspart, % remaining of the original concentration","[…] phenol + […] m-cresol, pH 7.2, NaCl 110 mM",99.2%
same,"Solubility of Insulin Aspart, % remaining of the original concentration","[…] phenol + […] m-cresol, pH 7.2, NaCl 140 mM",101.1%
same,"Solubility of Insulin Aspart, % remaining of the original concentration","[…] phenol + […] m-cresol, pH 7.4, NaCl 50 mM",100.0%
same,"Solubility of Insulin Aspart, % remaining of the original concentration","[…] phenol + […] m-cresol, pH 7.4, NaCl 80 mM",99.6%
same,"Solubility of Insulin Aspart, % remaining of the original concentration","[…] phenol + […] m-cresol, pH 7.4, NaCl 110 mM",99.5%
same,"Solubility of Insulin Aspart, % remaining of the original concentration","[…] phenol + […] m-cresol, pH 7.4, NaCl 140 mM",101.1%
same,"Solubility of Insulin Aspart, % remaining of the original concentration","[…] phenol + […] m-cresol, pH 7.6, NaCl 50 mM",100.1%
same,"Solubility of Insulin Aspart, % remaining of the original concentration","[…] phenol + […] m-cresol, pH 7.6, NaCl 80 mM",99.7%
same,"Solubility of Insulin Aspart, % remaining of the original concentration","[…] phenol + […] m-cresol, pH 7.6, NaCl 110 mM",99.4%
same,"Solubility of Insulin Aspart, % remaining of the original concentration","[…] phenol + […] m-cresol, pH 7.6, NaCl 140 mM",101.1%
